{"source": "paper PMC4443670", "about": "“The C-terminal region of the motor protein MCAK controls its structure and activity through a conformational switch” (eLife, 2015)", "molecules": {"B1": {"name": "motor domain: motor region of MCAK along with the neck linker region (residues 181–583), His-tagged (protein, UniProt Q99661 181-583, looked up, fragment)", "chain": "SANPVNSVRRKSCLVKEVEKMKNKREEKKAQNSEMRMKRAQEYDSSFPNWEFARMIKEFRATLECHPLTMTDPIEEHRICVCVRKRPLNKQELAKKEIDVISIPSKCLLLVHEPKLKVDLTKYLENQAFCFDFAFDETASNEVVYRFTARPLVQTIFEGGKATCFAYGQTGSGKTHTMGGDLSGKAQNASKGIYAMASRDVFLLKNQPCYRKLGLEVYVTFFEIYNGKLFDLLNKKAKLRVLEDGKQQVQVVGLQEHLVNSADDVIKMIDMGSACRTSGQTFANSNSSRSHACFQIILRAKGRMHGKFSLVDLAGNERGADTSSADRQTRMEGAEINKSLLALKECIRALGQNKAHTPFRESKLTQVLRDSFIGENSRTCMIATISPGISSCEYTLNTLRYAD", "modifications": "His tag", "notes": "motor region of MCAK along with the neck linker region (residues 181–583), His-tagged"}, "B2": {"name": "MCAKS715E: full-length MCAK S715E in which the CT domain cannot bind to the motor domains (protein)", "chain": "MAMDSSLQARLFPGLAIKIQRSNGLIHSANVRTVNLEKSCVSVEWAEGGATKGKEIDFDDVAAINPELLQLLPLHPKDNLPLQENVTIQKQKRRSVNSKIPAPKESLRSRSTRMSTVSELRITAQENDMEVELPAAANSRKQFSVPPAPTRPSCPAVAEIPLRMVSEEMEEQVHSIRGSSSANPVNSVRRKSCLVKEVEKMKNKREEKKAQNSEMRMKRAQEYDSSFPNWEFARMIKEFRATLECHPLTMTDPIEEHRICVCVRKRPLNKQELAKKEIDVISIPSKCLLLVHEPKLKVDLTKYLENQAFCFDFAFDETASNEVVYRFTARPLVQTIFEGGKATCFAYGQTGSGKTHTMGGDLSGKAQNASKGIYAMASRDVFLLKNQPCYRKLGLEVYVTFFEIYNGKLFDLLNKKAKLRVLEDGKQQVQVVGLQEHLVNSADDVIKMIDMGSACRTSGQTFANSNSSRSHACFQIILRAKGRMHGKFSLVDLAGNERGADTSSADRQTRMEGAEINKSLLALKECIRALGQNKAHTPFRESKLTQVLRDSFIGENSRTCMIATISPGISSCEYTLNTLRYADRVKELSPHSGPSGEQLIQMETEEMEACSNGALIPGNLSKEEEELSSQMSSFNEAMTQIRELEEKAMEELKEIIQQGPDWLELSEMTEQPDYDLETFVNKAESALAQQAKHFSALRDVIKALRLAMQLEEQAERQISSKKRPQ", "modifications": "left off: His tag, end not stated, state not stated"}, "B3": {"name": "MCAKE712C: full-length MCAK with Glu712 mutated to cysteine (protein)", "chain": "B2 chain with E712C, E715S", "modifications": "left off: His tag, end not stated, state not stated", "notes": "full-length MCAK with Glu712 mutated to cysteine"}, "B4": {"name": "CTE712C-bound motor: motor domain covalently bound (disulphide) to CTE712C domain (protein)", "chain 1": "NPVNSVRRKSCLVKEVEKMKNKREEKKAQNSEMRMKRAQEYDSSFPNWEFARMIKEFRATLECHPLTMTDPIEEHRICVCVRKRPLNKQELAKKEIDVISIPSKCLLLVHEPKLKVDLTKYLENQAFCFDFAFDETASNEVVYRFTARPLVQTIFEGGKATCFAYGQTGSGKTHTMGGDLSGKAQNASKGIYAMASRDVFLLKNQPCYRKLGLEVYVTFFEIYNGKLFDLLNKKAKLRVLEDGKQQVQVVGLQEHLVNSADDVIKMIDMGSACRTSGQTFANSNSSRSHACFQIILRAKGRMHGKFSLVDLAGNERGADTSSADRQTRMEGAEINKSLLALKECIRALGQNKAHTPFRESKLTQVLRDSFIGENSRTCMIATISPGISSCEYTLNTLRYAD", "chain 2": "VIKALRLAMQLECQASRQISSKKRPQ", "modifications": "disulphide bridge of Cysteine 287 to Cysteine 712 of the CT_(E712C) domain | disulphide bridge of Cysteine 712 to Cysteine 287 of the motor domain; left off: His tag, end not stated, kept | GST, end n"}, "B5": {"name": "MCAK: full-length wild type MCAK, kinesin-13 microtubule depolymerase (protein)", "chain": "B2 chain with E715S", "modifications": "left off: His tag, end not stated, state not stated", "notes": "full-length wild type MCAK, kinesin-13 microtubule depolymerase"}}, "key": {"[1]": {"experiment": "Analytical size-exclusion chromatography (oligomeric state / size)", "format": "physicochemical", "procedure": "Protein expression was induced by addition of 0.5 mM IPTG to BL21(DE3) Codon plus cells transformed with respective constructs at OD600 of 0.7–0.8 for 16 hr at 18°C. Cells were lysed by sonication in lysis buffer (50 mM Hepes, pH 7.4, 200 mM NaCl, 1 mM MgCl2, 1 mM PMSF, 1 mg/ml DNaseI, 2 mg/ml lysozyme, 10 mM Imidazole) and clarified at 20,000 rpm for 1 hr at 4°C. His-tagged and GST-tagged proteins were subsequently purified using Ni-NTA–agarose beads and glutathione-sepharose beads, respectively (GE Healthcare Life Sciences, UK)) according to the manufacturer's guidelines. MCAK constructs containing the motor domain were eluted with elution buffer (50 mM Hepes, pH 7.4, 200 mM NaCl, 1 mM MgCl2, 1 mM ATP, and 300 mM imidazole). Cleavage of the GST tag was performed using the GST-3C protease overnight at 4°C. […] Protein concentrations were determined with a combination of Bradford protein assays and densitometry of Coomassie-stained gels relative to a BSA standard. […]"}, "[2]": {"experiment": "Size-exclusion chromatography coupled to multi-angle light scattering (SEC-MALS)", "format": "physicochemical", "conditions": "100 mM HEPES pH 7.2, 150 mM NaCl", "procedure": "Size-exclusion chromatography with on-line multi-angle light scattering (SEC-MALS) was performed using a GE Superdex 200 10/300 GL column on an ÄKTA FPLC system. MALS measurements were performed using a MiniDAWN in-line detector (Wyatt Technology, Santa Barbara, CA, USA). MCAK motor domain and C terminus were at 2 mg/ml in 100 mM HEPES, pH 7.2, 150 mM NaCl. Protein concentration was monitored using a UV monitor at 280 nm and a refractive index detector was set at 690 nm (Optilab DSP, Wyatt Technology, Santa Barbara, CA, USA). Data were analyzed using Astra software (Wyatt Technology, Santa Barbara, CA, USA) using the refractive index detector and a refractive index increment (dn/dc) value of 0.185 ml/g. Gel phase distribution coefficients (Kav) were determined from the equation Kav = (Ve − Vo)/(Vt − Vo), where Ve, Vo, and Vt represent the elution volume of the protein of interest, the column void volume and the total bed volume of the column, respectively."}, "[3]": {"target": "taxol-stabilized microtubules", "experiment": "Microtubule cosedimentation assay, untreated microtubules", "format": "binding", "conditions": "for Kd: 50 nM, modified Hill equation, at least three independent experiments, read-out: apparent Kd for microtubules", "procedure": "(§1) Full-length MCAK complex was diluted in S buffer (50 mM NaCl, 20 mM Hepes pH 7.0) to 50 nM, in absence of nucleotide to prevent MCAK-dependent microtubule depolymerisation. To assemble an MCAK motor-CT domain complex, 50 nM of the motor domain and 100 nM of the CT domain were used. Microtubule binding assays were performed as described ([Cheeseman et al., 2006]) using equal volumes of taxol-stabilized microtubules in BRB80 and MCAK in S buffer. MCAK was quantified using anti-MCAK antibody against the C terminus of MCAK (709[…]720), generated by GL Biochem (Shangai) Ltd (China) or anti-His antibody to probe for the motor domain alone (GE Healthcare Lifesciences, UK). The data from at least three independent experiments were fitted to a modified Hill equation to determine the apparent Kd."}, "[4]": {"target": "subtilisin-treated microtubules", "experiment": "Microtubule cosedimentation assay, subtilisin-treated microtubules", "format": "binding", "conditions": "for affinity for subtilisin-treated microtubules (β-tubulin C termini removed): 50 nM full-length protein, subtilisin 10 min", "procedure": "as §1\nTubulin (5 mg/ml) was first polymerized into MTs in the presence of 1 mM GTP and gradual addition of 0.05 µM, 0.5 µM and 2 µM taxol for 1 hr at 37°C. The polymerized MTs were then treated with 100 μg/ml subtilisin and incubated at 37°C for 10 min to cleave β-tubulin tails and 120 min to cleave both α- and β-tubulin tails. Each reaction was then terminated with the addition of 3 mM PMSF. DM1A (Abcam, UK) and c-terminal β-tubulin (Sigma, UK) were used to detect the α- and β-tails, respectively by western blotting. The subtilisin treated microtubules were then pelleted at 28°C in a TLA100 rotor at 80,000 rpm for 10 min and the microtubule pellets were resuspended in warm BRB80 buffer to obtain subtilisin treated microtubules. The cosedimentation assays were then performed as described before."}, "[5]": {"system": "taxol-stabilized microtubules", "experiment": "Microtubule depolymerisation assay", "format": "biochemical", "procedure": "Microtubule depolymerization assays were performed essentially as described previously ([Hertzer et al., 2006]). MCAK was diluted to 100 nM in S-buffer containing 1 mM DTT and 2 mM Mg-ATP. For depolymerization assays of the motor domain in presence of the CT domain after GST cleavage and removal, 50 nM of motor domain and 100 nM of the CT domain were used. The microtubule depolymerization assay was initiated by the addition of 2 μM taxol-stabilized microtubules to a reaction buffer containing MCAK. Reactions were incubated at room temperature with increasing times and followed by centrifugation to separate microtubules from free tubulin. The data are represented as mean ± SD from three independent experiments."}, "[6]": {"conditions": "full-length protein, absence of nucleotide, untreated microtubules"}}, "note": "Where a chain is given by its changes, count along the chain named. Numbers in names are those of the source. Where “and” joins values, the source holds several entries; their conditions need not be identical. Equal values may be shown once. Read-outs that look alike come from different tables or passages of the source."}
{"molecule": "B1", "values": [{"measurement": "apparent size (gel filtration)", "setting": "[1]", "result": "~45", "unit": "kDa"}, {"measurement": "fraction monomeric", "setting": "[2]; SEC-MALS, absence of CT domain, 2 mg/ml", "result": "over 90%"}, {"measurement": "Monodispersity", "setting": "[2]; SEC-MALS", "result": 1.005}, {"measurement": "measured molecular weight (MW)", "setting": "[2]; SEC-MALS, Superdex 200 10/300 GL, 2 mg/ml, unit printed kDa in text, kD in figure", "result": "~45.3", "unit": "kDa"}, {"measurement": "Stoke Radius", "setting": "[2]; from SEC calibration curve", "result": 3.11, "unit": "nm"}, {"measurement": "Kd", "setting": "[3]; motor domain alone, absence of nucleotide", "result": 640, "unit": "nM"}, {"measurement": "Kd", "setting": "[4]; 50 nM motor domain in motor-CT domain complex, subtilisin-treated microtubules (10 or 120 min), absence of nucleotide", "result": 200, "unit": "nM"}, {"measurement": "effect of α-tubulin tail removal on affinity for microtubules lacking β-tubulin tail", "setting": "[4]; 50 nM motor domain, subtilisin 120 vs 10 min", "result": "did not further modify the affinity"}, {"measurement": "microtubule depolymerase activity of motor with CT domain, with and without DTT", "setting": "[5]; 50 nM motor domain, 100 nM CT domain, 2 μM taxol-stabilized microtubules", "result": "could depolymerize microtubules"}]}
{"molecule": "B2", "values": [{"measurement": "Kd", "setting": "[3]; [6]", "result": "~200 nM and 200 nM"}, {"measurement": "affinity for subtilisin-treated microtubules (β-tubulin C termini removed)", "setting": "[4]; absence of nucleotide", "result": "remained comparably high"}, {"measurement": "microtubule depolymerase activity, full-length", "setting": "[5]; 100 nM protein, 2 μM microtubules, 1 mM DTT, 2 mM Mg-ATP, room temperature, three experiments", "result": "appeared similar to wild type MCAK"}]}
{"molecule": "B3", "values": [{"measurement": "gel filtration profile", "setting": "[1]", "result": "eluted as one complex, of similar size to MCAK"}, {"measurement": "microtubule binding, absence of DTT (oxidizing)", "setting": "[3]; full-length protein 50 nM, absence of DTT and nucleotide", "result": "the affinity of MCAKE712C for microtubules was reduced and a fraction of MCAKE712C did not bind microtubules, even at saturating microtubule concentrations"}, {"measurement": "microtubule binding, presence of DTT", "setting": "[3]; full-length protein 50 nM, with DTT, absence of nucleotide", "result": "bound to microtubules similarly to wild type full-length MCAK"}]}
{"molecule": "B4", "values": [{"measurement": "detection of CT domain in microtubule-bound pellet / supernatant", "setting": "[3]; western blot, 50 nM motor domain, with and without DTT", "result": "remained in the supernatant"}]}
{"molecule": "B5", "values": [{"measurement": "Kd", "setting": "[3]; [6]", "result": "~1500 nM and 1500 nM"}, {"measurement": "affinity for subtilisin-treated microtubules (β-tubulin C termini removed)", "setting": "[4]; absence of nucleotide", "result": "increased the affinity"}]}
